Experimental data taken from patent publication US20250051443A1 (NATIONAL RESEARCH COUNCIL OF CANADA, published 2025).
Read-outs that look alike come from different tables or passages of the source.

B1: F332-13B4 (antibody, mouse IgG2a, V domains shown)
VH: QVQLQQSGPELVKPGASVKISCKASGYSFTNSYVHWVKQTPGQGLEWIGWIYPGSTNIKYNEKFKGKATLTADTSSSTVYMQLSSLTSEDSAVYFCARDGSYFFDYWGQGTTLTVSS
VL: DIVMSQSPSSLAVSAGEKVTMTCKSSQSLLNSRTRKNYLAWYQQKPGQSPKLLIYWASTRESGVPDRFTGSGSGTDFTLTISSVQAEDLAVYYCKQSYILRTFGGGTKLEIK
notes: also called F332-13B4-2

Experiments:
[1] = biological target: T1, human CD3 (human, UniProt P07766 23-207; P09693 23-182; P04234 22-171); assay: flow cytometry, AF488-labeled mAb on CD3+ Jurkat cells
[2] = biological target: T1, human CD3; assay: flow competition on Jurkat, 100 nM unlabeled mAb; competitor AF488-UCHT1 5 nM (self)
[3] = biological target: T1, human CD3; assay: flow competition on Jurkat, 100 nM unlabeled mAb; competitor AF488-SK7 1.5 nM
Protocol: (§1) In order to evaluate whether anti-CD3 monoclonal antibodies bind to the same epitope region, flow cytometry competition experiments on Jurkat cells were performed.
(§2) To that effect, a fixed concentration of the indicated AF488-labeled mAb were incubated with 100 nM of unlabeled monoclonal antibodies to assess if their binding capacity was impaired in presence of unlabeled mAbs. […] The AF488-OKT3 mIgG2b was labeled in-house using AlexaFluor488 protein labelling kit (Invitrogen #A10235) following manufacturer's instruction. The free dye removal step was done using Zeba™ Spin Desalting Columns, 7K MWCO (Thermo Scientific #89890). The final product was analyzed by UPLC-SEC to ensure the integrity of the labeled mAb.

[4] = biological target: T1, human CD3; assay: flow competition on Jurkat, 100 nM unlabeled mAb; competitor AF488-SP34.2 20 nM
Protocol: as §1, §2

[5] = biological target: T1, human CD3; assay: apparent KD (KDapp), flow cytometry titration on purified primary human T cells
Protocol: The binding characteristics of the purified anti-CD3 mAbs were assessed in titration studies on purified human primary T cells from different donor samples. Fresh ex vivo peripheral blood mononuclear cells (PBMCs) were obtained via density centrifugation over Ficoll-Paque using standard procedures and untouched T cell fractions obtained from PBMCs by negative pan-T cell selection and magnetic cell sorting. Starting from 300 nM concentrations of the anti-CD3 mAbs, eight point binding curves were generated from the resultant mean fluorescence intensity (MFI) values obtained through detection of labelled secondary antibody to bound CD3 in flow cytometry experiments (FIGS. 3A and 3B). Both commercial mouse anti-human CD3 mAb (OKT-3; Biolegend) and an in house generated IgG1 version of OKT-3 were employed as positive controls together with a non-specific mouse IgG serving as a negative binding control. Following curve fit analysis using one-site specific binding with Hill slope, the KDapp (concentration needed to achieve a half-maximum binding at equilibrium) for each mAb was calculated (Table 2).
Eight point binding titrations were performed with the anti-CD3 mAbs starting at either 300 or 100 nM on freshly purified human T cells obtained through negative selection from PBMC fractions. Briefly, 1×10⁵ human T cells (50 μL of staining buffer (SB; PBS/1% BSA/0.01% NaN3) were incubated with graded dilutions of the anti-CD3 mAbs in SB ([…]) for 2 hours at 4° C. in 96 w U-bottom plates, followed by plate washing with SB ([…]). Cell pellets were resuspended with 25 μL of a 0.25 mg/mL solution of the goat (Fab′)₂ anti-mouse IgG (H+L)− APC secondary antibody in SB, incubated at 4° C. (30 min.), washed 1× with SB, and resuspended for flow analysis. Recombinant anti-human OKT-3 IgG2b (in house produced) and non-specific mIgG were employed similarly as positive and negative controls respectively. 10K live events were acquired on a BD LSRFortessa flow analyzer and mean fluorescence intensities (MFI) calculated after subtraction of secondary antibody alone values. Using GraphPad Prism software, the data were analyzed using a one site specific binding with Hill slope non-linear regression model to calculate KDapp and BMax values (See Table 2).

[6] = biological target: T2, Cynomolgus CD3 (Cynomolgus, UniProt Q95LI5 22-198; Q95LI7 23-181; Q95LI8 22-171); assay: apparent KD (KDapp), flow cytometry titration on cynomolgus HSC-F T cell line
T2 construct: whole, on cells; also called CD3 on Cynomolgus PBMCs; CD3 on HSC-F Cynomolgus T cell line
Protocol: To characterize potential cross-reactivity of the anti-human CD3 mAbs to NHP T cells, dose response flow cytometry titration studies were performed on both freshly obtained Cynomolgus PBMCs (Comparative Medicine and Animal Resources Centre—McGill University) or the Cynomolgus derived T cell line, HSC-F (Non-Human Primate Reagent Resource—NIH). Binding studies on fresh Cynomolgus PBMCs was performed on a subset of anti-CD3 mAbs (FIG. 4) whereas the Herpesvirus saimiri immortalized Cynomolgus T cell line HSC-F was employed for further evaluations (FIGS. 5A to 5C). KDapp values were calculated using a non-linear regression model of one-site binding with Hill slope (GraphPad Prism) and tabulated (Table 3b). Similar KDapp values for anti-CD3 mAb 1E2 obtained from binding to fresh Cynomolgus PBMCs (KDapp=0.28 nM) or the HSC-F T cell line (KDapp=0.39 nM) indicated the HSC-F cell line was a suitable surrogate for ex vivo NHP T cells.
HSC-F T cells obtained from the Non-Human Primate Reagent Resource (NIH) were maintained in culture in RPMI media containing 20% FBS and 40 IU/mL recombinant human IL2. 100K HSC-F cells in logarithmic cell growth were treated with graded doses of the anti-CD3 mAbs starting at 100 nM in staining buffer (SB; PBS/1% BSA/0.01% NaN3) for 2 hours at 4° C. in 96 w V-bottom plates. Following plate washing with SB, the cell pellets were resuspended with 25 μL of goat (Fab′)₂ anti-mouse IgG (H+L)− APC secondary antibody (final 5 μg/mL), incubated for 30 minutes at 4° C., followed by flow cytometry analysis. The commercial NHP cross-reactive SP34.2 anti-CD3 mAb (BD Biosciences), recombinant anti-human OKT-3 IgG2b (in house produced) and non-specific mIgG were employed as controls. 20K live events were acquired on a BD LSRFortessa flow analyzer and mean fluorescence intensities (MFI) calculated after subtraction of secondary antibody alone values. Using GraphPad Prism software, the data were analyzed using a one site specific binding with Hill slope non-linear regression model to calculate KDapp and BMax values (See Table 2).

[7] = biological target: T1, human CD3; assay: flow competition on Jurkat, 100 nM unlabeled mAb; competitor AF488-SP34.2 20 nM (self)
[8] = biological target: T1, human CD3; assay: flow competition on Jurkat, 100 nM unlabeled mAb; competitor AF488-UCHT1 5 nM
Protocol: as §1, §2

[9] = biological target: T1, human CD3; assay: apparent KD (KDapp), flow cytometry titration of the AF488-labeled mAb on Jurkat cells
[10] = biological target: T1, human CD3; assay: flow competition on Jurkat, 100 nM unlabeled mAb; competitor AF488-SK7 1.5 nM (self)
[11] = biological target: T1, human CD3; assay: cell-based or functional assay
[12] = biological target: T1, human CD3; assay: flow competition on Jurkat, 100 nM unlabeled mAb; competitor AF488-OKT-3 mIgG2b 1.5 nM (self)
[13] = biological target: T1, human CD3; assay: apparent KD (KDapp), flow cytometry titration on Jurkat cells
Protocol: Unless otherwise stated, all media are kept are 4° C. and all incubations are performed on wet ice. Exponentially growing Jurkat cells were centrifuged and resuspended in complete medium at a cell density of 2×10⁶ cells/mL. Fifty μL/well of cells were distributed in a polypropylene v-bottom 96 well plate and serial 1/3 dilutions of purified mAbs starting at 300 nM were added and incubated for 2 hours. Cells were washed twice by centrifugation and further incubated with a FITC labeled F(ab′)2 goat anti-mouse antibody (Fc specific, #115-096-071, Jackson Immunoresearch, Cedarlane, Burlington, ON) for an hour. Cells were washed and re-suspended in medium containing Propidium iodide to exclude dead cells from analysis. Samples were filtered through a 60 μm nylon mesh filter plate (Millipore, Ireland) to remove cell aggregates. Flow cytometry analyses were performed on 2,000 viable single-cells events gated on forward scattering, side scattering parameters and propidium iodide dye exclusion using a BD-LSRFortessa flow cytometer (Becton-Dickinson Biosciences, CA, USA) and a standard filter set using BD FACSDiva™ acquisition software, according to manufacturer's instructions.

[14] = biological target: T1, human CD3; assay: flow cytometry, negative control on CD3+ Jurkat cells
[15] = biological target: T1, human CD3; assay: flow cytometry, hybridoma supernatant on CD3+ Jurkat cells
Protocol: Cells were stained with either negative control mouse IgG (Jackson Immunoresearch cat #115-000-003) or an anti-GFP 3E6 mAb supernatant or tested hybridoma supernatant. Specific binding was reflected by the increase in the mean fluorescent intensity of antibody binding to Jurkat T-cells (FIGS. 1A to 1F, grey histograms) compared to the Jurkat CD3 negative cell line J.RT3-T3.5 (FIGS. 1A to 1F, open histograms). AF488 labeled positive control mAb OKT3 was also analyzed.

[16] = biological target: T1, human CD3; assay: flow competition on Jurkat, 100 nM unlabeled mAb; competitor AF488-OKT-3 mIgG2b 1.5 nM
Protocol: as §1, §2

[17] = biological target: T1, human CD3; assay: cell-based or functional assay; remark: listed apart in the source

Molecule | MFI [1] [MFI] | % residual fluorescence of labeled mAb [3] [%] | % residual fluorescence of labeled mAb [4] [%] | Kd [5] [nM] | % residual fluorescence of labeled mAb [8] [%] | further results
UCHT1 (antibody) | 293 | 7 | 54 | – | – | % residual fluorescence of labeled mAb [2]: 8%
SP34.2 (antibody) | – | 29 | – | 1.77 | 49 | Kd [6]: 1.29 nM; % residual fluorescence of labeled mAb [7]: 10%; Kd [9]: 10.8 nM
SK7 (antibody) | 311 | – | 58 | – | 14 | % residual fluorescence of labeled mAb [10]: 9%
OKT-3 AF488 (antibody) | 265 | – | – | – | – | –
recombinant mouse IgG2b OKT-3 produced in-house (antibody) | – | 6 | 26 | 0.03 | 11 | % max ref. OKT3 (dTomato activation) [11]: 105%; EC50 of dTomato induction (CD69 promoter), Jurkat-CD69-dTomato cells, 24 h [11]: 0.17 µg/mL; IC50, indirect ADC surrogate growth inhibition (anti-mouse-DM1) on Jurkat cells [11]: 0.057 nM; Span, indirect ADC surrogate growth inhibition on Jurkat cells [11]: 91%; % residual fluorescence of labeled mAb [12]: 8%; Kd [13]: 0.13 to 0.23 nM
Mouse IgG (antibody) | – | – | – | – | – | MFI [14]: 34 MFI
B1 | – | 43 | 8 | 0.05 | 72 | MFI [15]: 373 MFI; Kd [6]: 0.64 nM; % residual fluorescence of labeled mAb [16]: 79%; % max ref. OKT3 (dTomato activation) [17]: 90%; EC50 of dTomato induction (CD69 promoter), Jurkat-CD69-dTomato cells, 24 h [17]: 0.47 µg/mL; Kd [13]: 0.6 nM
